One molecule from patent publication US20140112931A1 can be followed below.

Bounds are passed on as bounds.

Experiment [1] concerns the target human HER3-Fc protein (R&D system) (human) (UniProt P21860). The experiment is described as follows: ELISA towards a 250 ng/ml coating solution of HER3 receptor, purified antibody. For orientation: In an ELISA, binding on a coated surface is turned into a signal by an enzyme label.
Experiment [2] has as its target HER3 receptor (soluble analyte of the BIACORE analysis) (human) (UniProt P21860). The experiment is described as follows: SPR, BIACORE 3000, 25 °C; antibody captured by anti-mouse polyclonal on CM5, HER3 receptor injected; bivalent analyte model. A general note: In SPR one partner is held on a chip, and binding of the other changes the refractive index at the surface.

For experiment [3], the target named is human HER3-Fc protein (R&D system) (human) (UniProt P21860). The experiment is described as follows: ELISA, HER3-Fc coated at 250 ng/ml.

B1: murine anti-HER3 monoclonal antibody 9F7-F11 (antibody, from another filing, V domains shown)
VH: EVKLVESGGGLVQPGGSLKLSCAASGFTFSSYTMSWVRQTPEKRLEWVAYISDGGGVTYYPDTIKGRFTISRDNAKNTLYLQMSSLKSEDTAMYYCARDRYGLFAYWGQGTLVTVSA
VL: DIVMTQSQKFMSTSVGDRVSITCKASQNVGIAVAWYQQKPGQSPKLLIYSASNRYTGVPDRFTGSGSGTDFTLTISNMQSEDLADYFCQQYSNYPYTFGGGTKLEIK
What is called koff is the rate constant with which the complex falls apart. Lower therefore signals a long-lived complex. The kon is the second-order rate constant of association. The low end stands for slow association, the high end for fast association. Broadly, the EC50 is the concentration that produces a half-maximal response. Take B1: in experiment [1], the Ab titer after purification (Ab concentration showing an absorbance of 1 by ELISA) turned out to be 400 pg/mL. In experiment [2], this molecule came in with a Kd of 4.4 nM, a dissociation rate constant (koff) of 0.00024 s⁻¹ and an on-rate constant (kon) of 54000 M⁻¹ s⁻¹. The 50% effective concentration (EC50) in experiment [3] is < 1 ng/mL.
